Data from paper PMC3169409.

What was measured:
[1] = target: nitrilotriacetate monooxygenase component B from Mycobacterium thermoresistibile (Mycobacterium thermoresistibile); experiment: SEC; Superdex 75 26/60 in 20 mM HEPES pH 7.0, 300 mM NaCl, 5% glycerol, 1 mM TCEP
[2] = target: nitrilotriacetate monooxygenase component B from Mycobacterium thermoresistibile (Mycobacterium thermoresistibile); experiment: crystal structure; apo structure at 1.6 Å, space group P212121; two independent dimers in the asymmetric unit; crystals from 0.2 M magnesium chloride, 0.1 M MES pH 6.0, 20% PEG 6000 at 289 K

- stoichiometry N [1]: 2
- stoichiometry N [2]: 2
Substance: nitrilotriacetate monooxygenase component B from Mycobacterium thermoresistibile (enzyme)
